B1: HDV Ribozyme (parent)
chain: GGCCGGCAUGGUCCCAGCCUCCUCGCUGGCGCCGGCUGGGCAACAUUCCGAGGGGACCGUCCCCUCGGUAAUGGCGAAUGGGACCCA

Variants of: B1
Assay: self-cleavage, relative activity (ratio to wild type); higher = more cleavage; co-transcriptional

Variant	self-cleavage
G55U A78G	0.684
G28U A83U	0.0415
C41G G59C	0.919
C62G C63A	0.639
C3G C36U	0.155
C13G G73U	0.0361
G6C C7U	0.787
C30U C49G	0.31
G34C C41A	0.233
G34U C75U	0.109
G81C C86U	0.302
C33A G50A	0.215
C44U G50A	0.855
U72C C84U	0.284
C18G U37A	0.111
U9A G59C	1.03
A45C	0.702
G59C C75G	0.189
C4G U47C	0.346
G54A C86A	0.988
C13G G74A	0.0405
G39C G73A	0.0339
G50U C57U	1.17
C44U	0.803

Variant	self-cleavage
A16G C48A	0.802
C24A U60G	0.678
G53C A78G	0.554
A70C C86G	1.35
G10C C19A	0.0563
G38C A70C	0.291
C22G C85U	0.0845
C13G U20G	0
A56G C57U	0.985
G54U G76A	0.981
G59U G82C	0.228
C33G C75A	0.0791
A51U U65A	0.966
C7A C19U	0.0906
U9C C18G	0.138
A42U G52A	0.612
C61U C85G	0.981
C57U G67A	0.906
G39A G53A	0.632
U9G C18G	0
C36U G67C	0.831
G38C C75A	0
G31U A83C	0.0898
U47A A70G	0.831

Variant	self-cleavage
G54C C86U	0.923
G35C C64U	0.348
G10A C22A	0.0528
C4G U37A	0.0462
C48G C61U	0.876
G31U U37C	0.415
G6C G28A	0.0545
U9C C66G	1.04
A45U G53U	0.997
A43G G80A	0.115
C48U C75U	0.211
C30U C36G	0.0941
G11U G82C	0.117
C33G C36A	0.107
U27C G39U	0.467
C24U G28U	0.119
U12A U47C	0.332
C15G C66G	0.475
G10A C41U	0.607
C21U G50U	0.141
U65G C84G	0.569
G53C C63G	0.973
A42C G81A	0.104
G11A A70C	0.175

Variant	self-cleavage
C63U C75A	0.106
G34U A51G	0.339
C57A G68A	0.819
G67A U69C	0.927
C19U A56C	0.0936
C14U C58U	0.991
U12G C24U	0.511
C57G C58A	1.26
C64U A71C	0.719
U9G G55C	0.665
G34C A87U	0.192
C4A A42C	0.0332
C63G C84U	0.629
C21U C22A	0.0482
C21A G39A	0.0277
U69A U79G	0.831
G17A C41G	0.0997
U60G G81A	0.269
U9A C57U	1.19
U46C U79G	0.554
C24G G73U	0.0841
A8G U23G	0.776
U9C C13G	0.158
G59C C66G	1.14

Variant	self-cleavage
G52U C63U	1
G31U C33A	0.0231
U23G A71U	0.633
U12A G53A	0.403
G5A A71C	0.0426
U47A A51U	1.03
G5A G35A	0.0692
G17U C44G	0.222
C13U A43G	0.525
U27A U37A	0.138
C26G G81A	0.77
G34A U72G	0.0326
C21A A56G	0.109
G55A U65G	1.09
A8C G50C	1.04
C41G G82U	0.157
C57G A77U	0.923
C13U U47C	0.489
G25U G74C	0.0308
C13U C21A	0.192
G25U G28U	0.0652
U12C A51U	0.359
U46A G81A	0.271
U20C G67C	0.405

Variant	self-cleavage
C19G C64U	0.056
C30G C49G	0.203
G54C A77C	0.426
G10C C32A	0.185
G1U U72A	0.466
G25A C63G	0.237
G29A U46C	0.138
A45U A78G	0.571
C30G G31C	0.104
C15U A56U	0.91
G38A A78C	0.138
U46G G82C	0.158
G25U C41A	0.125
U12A A51C	0.237
C30U G39U	0.0936
C3A C57G	0.587
C19U C48G	0.0594
G11A C21U	0.175
A8C A77G	0.798
C58G G81U	0.26
C48A C58A	0.831
A8U G38U	0.326
G25U U65A	0
C13G G25C	0.0875

Variant	self-cleavage
U69A A83G	0.712
C24G G34U	0.0268
A51U G55U	0.989
G55A C58A	0.978
A45U U65A	0.618
C64U U69C	1.17
U12A G54A	0.306
C85G A87G	0.919
C15G C18G	0.0594
A42G C62U	0.808
U9G A87U	0.853
G29U U60C	0
C24U C44A	0.277
G53C G74U	0.379
G1U A16G	0.256
G6U C24U	0.133
C14A U72G	0.151
C85G C86U	0.858
G29C C75A	0.138
G1C C49G	0.0898
C57A U79C	0.429
G35A G73U	0.223
G40C G50A	0.219
